According to patent publication US20190233495A1 (Sanofi, published 2019):
Non-standard residues stand in square brackets, D forms with d. Nle = CCCC[C@H](N)C(=O)O; Aib = CC(C)(N)C(=O)O

B1: SEQ ID NO: 52 (peptide)
peptide: Ac-LEGREKVRAQI[Aib][Aib]EG[Nle]SQWS[Aib]RRR-NH2
SMILES: CCCC[C@H](NC(=O)CNC(=O)[C@H](CCC(=O)O)NC(=O)C(C)(C)NC(=O)C(C)(C)NC(=O)[C@@H](NC(=O)[C@H](CCC(N)=O)NC(=O)[C@H](C)NC(=O)[C@H](CCCNC(=N)N)NC(=O)[C@@H](NC(=O)[C@H](CCCCN)NC(=O)[C@H](CCC(=O)O)NC(=O)[C@H](CCCNC(=N)N)NC(=O)CNC(=O)[C@H](CCC(=O)O)NC(=O)[C@H](CC(C)C)NC(C)=O)C(C)C)[C@@H](C)CC)C(=O)N[C@@H](CO)C(=O)N[C@@H](CCC(N)=O)C(=O)N[C@@H](Cc1c[nH]c2ccccc12)C(=O)N[C@@H](CO)C(=O)NC(C)(C)C(=O)N[C@@H](CCCNC(=N)N)C(=O)N[C@@H](CCCNC(=N)N)C(=O)N[C@@H](CCCNC(=N)N)C(N)=O
B2: SEQ ID NO: 50 (peptide)
peptide: Ac-LEGREKVRAQI[Aib][Aib]EG[Nle]STWS[Aib]RRR-NH2
SMILES: CCCC[C@H](NC(=O)CNC(=O)[C@H](CCC(=O)O)NC(=O)C(C)(C)NC(=O)C(C)(C)NC(=O)[C@@H](NC(=O)[C@H](CCC(N)=O)NC(=O)[C@H](C)NC(=O)[C@H](CCCNC(=N)N)NC(=O)[C@@H](NC(=O)[C@H](CCCCN)NC(=O)[C@H](CCC(=O)O)NC(=O)[C@H](CCCNC(=N)N)NC(=O)CNC(=O)[C@H](CCC(=O)O)NC(=O)[C@H](CC(C)C)NC(C)=O)C(C)C)[C@@H](C)CC)C(=O)N[C@@H](CO)C(=O)N[C@H](C(=O)N[C@@H](Cc1c[nH]c2ccccc12)C(=O)N[C@@H](CO)C(=O)NC(C)(C)C(=O)N[C@@H](CCCNC(=N)N)C(=O)N[C@@H](CCCNC(=N)N)C(=O)N[C@@H](CCCNC(=N)N)C(N)=O)[C@@H](C)O
B3: SEQ ID NO: 53 (peptide)
peptide: Ac-LEGREKVRAQI[Aib][Aib]EG[Nle]STYS[Aib]RKK-NH2
SMILES: CCCC[C@H](NC(=O)CNC(=O)[C@H](CCC(=O)O)NC(=O)C(C)(C)NC(=O)C(C)(C)NC(=O)[C@@H](NC(=O)[C@H](CCC(N)=O)NC(=O)[C@H](C)NC(=O)[C@H](CCCNC(=N)N)NC(=O)[C@@H](NC(=O)[C@H](CCCCN)NC(=O)[C@H](CCC(=O)O)NC(=O)[C@H](CCCNC(=N)N)NC(=O)CNC(=O)[C@H](CCC(=O)O)NC(=O)[C@H](CC(C)C)NC(C)=O)C(C)C)[C@@H](C)CC)C(=O)N[C@@H](CO)C(=O)N[C@H](C(=O)N[C@@H](Cc1ccc(O)cc1)C(=O)N[C@@H](CO)C(=O)NC(C)(C)C(=O)N[C@@H](CCCNC(=N)N)C(=O)N[C@@H](CCCCN)C(=O)N[C@@H](CCCCN)C(N)=O)[C@@H](C)O
B4: SEQ ID NO: 54 (peptide)
peptide: Ac-LEGREKVRAQI[Aib][Aib]EGQSTWS[Aib]RKK-NH2
SMILES: CC[C@H](C)[C@H](NC(=O)[C@H](CCC(N)=O)NC(=O)[C@H](C)NC(=O)[C@H](CCCNC(=N)N)NC(=O)[C@@H](NC(=O)[C@H](CCCCN)NC(=O)[C@H](CCC(=O)O)NC(=O)[C@H](CCCNC(=N)N)NC(=O)CNC(=O)[C@H](CCC(=O)O)NC(=O)[C@H](CC(C)C)NC(C)=O)C(C)C)C(=O)NC(C)(C)C(=O)NC(C)(C)C(=O)N[C@@H](CCC(=O)O)C(=O)NCC(=O)N[C@@H](CCC(N)=O)C(=O)N[C@@H](CO)C(=O)N[C@H](C(=O)N[C@@H](Cc1c[nH]c2ccccc12)C(=O)N[C@@H](CO)C(=O)NC(C)(C)C(=O)N[C@@H](CCCNC(=N)N)C(=O)N[C@@H](CCCCN)C(=O)N[C@@H](CCCCN)C(N)=O)[C@@H](C)O
B5: SEQ ID NO: 51 (peptide)
peptide: Ac-LEGREKVRAQI[Aib][Aib]EG[Nle]STFS[Aib]RKK-NH2
SMILES: CCCC[C@H](NC(=O)CNC(=O)[C@H](CCC(=O)O)NC(=O)C(C)(C)NC(=O)C(C)(C)NC(=O)[C@@H](NC(=O)[C@H](CCC(N)=O)NC(=O)[C@H](C)NC(=O)[C@H](CCCNC(=N)N)NC(=O)[C@@H](NC(=O)[C@H](CCCCN)NC(=O)[C@H](CCC(=O)O)NC(=O)[C@H](CCCNC(=N)N)NC(=O)CNC(=O)[C@H](CCC(=O)O)NC(=O)[C@H](CC(C)C)NC(C)=O)C(C)C)[C@@H](C)CC)C(=O)N[C@@H](CO)C(=O)N[C@H](C(=O)N[C@@H](Cc1ccccc1)C(=O)N[C@@H](CO)C(=O)NC(C)(C)C(=O)N[C@@H](CCCNC(=N)N)C(=O)N[C@@H](CCCCN)C(=O)N[C@@H](CCCCN)C(N)=O)[C@@H](C)O
B6: SEQ ID NO: 5 (peptide)
peptide: Ac-LEGREKVRAK(Ac)I[Aib][Aib]EG[Nle]STWS[Aib]RKK(Ac)-NH2
SMILES: CCCC[C@H](NC(=O)CNC(=O)[C@H](CCC(=O)O)NC(=O)C(C)(C)NC(=O)C(C)(C)NC(=O)[C@@H](NC(=O)[C@H](CCCCNC(C)=O)NC(=O)[C@H](C)NC(=O)[C@H](CCCNC(=N)N)NC(=O)[C@@H](NC(=O)[C@H](CCCCN)NC(=O)[C@H](CCC(=O)O)NC(=O)[C@H](CCCNC(=N)N)NC(=O)CNC(=O)[C@H](CCC(=O)O)NC(=O)[C@H](CC(C)C)NC(C)=O)C(C)C)[C@@H](C)CC)C(=O)N[C@@H](CO)C(=O)N[C@H](C(=O)N[C@@H](Cc1c[nH]c2ccccc12)C(=O)N[C@@H](CO)C(=O)NC(C)(C)C(=O)N[C@@H](CCCNC(=N)N)C(=O)N[C@@H](CCCCN)C(=O)N[C@@H](CCCCNC(C)=O)C(N)=O)[C@@H](C)O
B7: SEQ ID NO: 1 (peptide)
peptide: Ac-LEGREKVRAQI[Aib]IEGMSKWSKRKK-NH2
SMILES: CC[C@H](C)[C@H](NC(=O)[C@H](CCC(N)=O)NC(=O)[C@H](C)NC(=O)[C@H](CCCNC(=N)N)NC(=O)[C@@H](NC(=O)[C@H](CCCCN)NC(=O)[C@H](CCC(=O)O)NC(=O)[C@H](CCCNC(=N)N)NC(=O)CNC(=O)[C@H](CCC(=O)O)NC(=O)[C@H](CC(C)C)NC(C)=O)C(C)C)C(=O)NC(C)(C)C(=O)N[C@H](C(=O)N[C@@H](CCC(=O)O)C(=O)NCC(=O)N[C@@H](CCSC)C(=O)N[C@@H](CO)C(=O)N[C@@H](CCCCN)C(=O)N[C@@H](Cc1c[nH]c2ccccc12)C(=O)N[C@@H](CO)C(=O)N[C@@H](CCCCN)C(=O)N[C@@H](CCCNC(=N)N)C(=O)N[C@@H](CCCCN)C(=O)N[C@@H](CCCCN)C(N)=O)[C@@H](C)CC

Biological target: T1, RXFP1 receptor (UniProt Q9HBX9 1-757, limits assumed)
T1 sequence (looked up): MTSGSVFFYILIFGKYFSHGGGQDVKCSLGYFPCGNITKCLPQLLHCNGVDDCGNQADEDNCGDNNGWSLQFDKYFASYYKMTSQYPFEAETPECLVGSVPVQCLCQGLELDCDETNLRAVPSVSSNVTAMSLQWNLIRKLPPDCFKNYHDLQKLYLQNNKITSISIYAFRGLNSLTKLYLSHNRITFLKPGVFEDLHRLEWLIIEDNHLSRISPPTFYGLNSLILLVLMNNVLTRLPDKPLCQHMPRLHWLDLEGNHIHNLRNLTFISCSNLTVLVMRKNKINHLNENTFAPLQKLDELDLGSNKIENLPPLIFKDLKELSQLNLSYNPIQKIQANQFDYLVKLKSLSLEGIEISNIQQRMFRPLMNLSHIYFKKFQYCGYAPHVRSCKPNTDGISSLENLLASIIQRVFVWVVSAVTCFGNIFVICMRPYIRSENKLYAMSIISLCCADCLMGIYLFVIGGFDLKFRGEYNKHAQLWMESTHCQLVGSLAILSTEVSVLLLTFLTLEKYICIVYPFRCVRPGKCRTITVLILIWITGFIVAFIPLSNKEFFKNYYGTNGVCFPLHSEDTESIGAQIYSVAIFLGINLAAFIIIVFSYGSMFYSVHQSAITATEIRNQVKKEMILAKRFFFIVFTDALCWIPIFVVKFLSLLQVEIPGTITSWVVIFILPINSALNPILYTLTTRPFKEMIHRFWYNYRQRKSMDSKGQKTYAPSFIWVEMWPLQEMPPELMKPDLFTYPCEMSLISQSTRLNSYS
Assay: cell-based or functional assay

Row | Binder | cAMP assay in OVCAR 5 cells EC50 [nM] | cAMP assay in OVCAR 5 cells Emax [%]
1 | B1 | 9.15 | 94
2 | B2 | 4.42 | 90
3 | B3 | 76.2 | 75
4 | B4 | 22 | –
5 | B5 | 18.6 | 98
6 | B6 | 7.4 | 98
7 | B7 | 42.9 | 91
